Measured values published in patent publication US20220153854A1.

Target: membrane bound human OX40L on CHO-KI cells (human) (UniProt P23510)
Test: cell-based or functional assay

Sequence of membrane bound human OX40L on CHO-KI cells (human) (P23510 whole entry): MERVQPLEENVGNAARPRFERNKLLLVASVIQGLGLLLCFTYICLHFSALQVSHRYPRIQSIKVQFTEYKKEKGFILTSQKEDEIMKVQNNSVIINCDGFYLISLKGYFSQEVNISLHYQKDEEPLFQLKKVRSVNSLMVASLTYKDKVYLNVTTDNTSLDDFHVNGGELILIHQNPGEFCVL

PBMC activity assay IC50: 2.5 nM
fold better potency in the OX40L-driven PBMC activity assay against the non-affinity matured counterpart (15B07): 20 fold
fold better potency in the PBMC activity assay against F-027100179: 10 fold
B1: ISVD construct F027100172 (protein, part only; not given: anti-IL-13 building blocks, part only)
chain, part: DVQLVESGGGVVQPGGSLRLSCAASRSIGRYDRMGWYRHRPGEPRELVATITGGSSINYGDSVKGRFTISIDNSKNTVYLQMNSLRPEDTALYYCNFNKYQISRDTWGQGTLVTVSSGGGGSGGGSGGGGSGGGSEVQLVESGGGVVQPGGSLRLSCAASGFTFRSFGMSWVRQAPGKGPEWVSSISGSGSDTLYADSVKGRFTISRDNSKNTLYLQMNSLRPEDTALYYCTIGGSLSRSSQGTLVTVSSGGGGSGGGS
